Assay results: PMC9729196, “An in silico method to assess antibody fragment polyreactivity” (Nature Communications, 2022)

B1: AT118i4h32 / wild-type human FLAG-AT1R (angiotensin II type 1 receptor) [human] (parent complex)
chain 1: MAEVQLVESGGGLVQPGGSLRLSCAASGYIYRRYRMGWYRQAPGKGREFVAAISGGSSTNYADSVKGRFTISRDNSKNTVYLQMNSLRAEDTAVYYCAAYRIVSDPRVYWGQGTQVTVSSLE
chain 2: MILNSSTEDGIKRIQDDCPKAGRHNYIFVMIPTLYSIIFVVGIFGNSLVVIVIYFYMKLKTVASVFLLNLALADLCFLLTLPLWAVYTAMEYRWPFGNYLCKIASASVSFNLYASVFLLTCLSIDRYLAIVHPMKSRLRRTMLVAKVTCIIIWLLAGLASLPAIIHRNVFFIENTNITVCAFHYESQNSTLPIGLGLTKNILGFLFPFLIILTSYTLIWKALKKAYEIQKNKPRNDDIFKIIMAIVLFFFFSWIPHQIFTFLDVLIQLGIIRDCRIADIVDTAMPITICIAYFNNCLNPLFYGFLGKKFKRYFLQLLKYIPPKAKSHSNLSTKMSTLSYRPSDNVSSSTKKPAPCFEVE

Variants of: B1
Test: flow cytometry on cells; parent: 100; read off a plot

Row | percent of parent | Variant
1 | ~48 % of WT | chain 1 MAEVQLVESGGGLVQPGGSLRLSCAASGYIRRRYRMGWYRQAPGKGREFVAAISGGSSTNYADSVKGRFTISRDNSKNTVYLQMNSLRAEDTAVYYCAAYRIVSDPRVYWGQGTQVTVSSLE [chain 1 Y31R]
2 | ~22 % of WT | chain 1 MAEVQLVESGGGLVQPGGSLRLSCAASGYIYRRYRMGWYRQAPGKGREFVAAISGGSSTNYADSVKGRFTISRDNSKNTVYLQMNSLRAEDTAVYYCWAYRIVSDPRVYWGQGTQVTVSSLE [chain 1 A98W]
3 | ~41 % of WT | chain 1 MAEVQLVESGGGLVQPGGSLRLSCAASGYIYRRYRMGWYRQAPGKGREFVAAIVGGSSTNYADSVKGRFTISRDNSKNTVYLQMNSLRAEDTAVYYCAAYRIVSDPRVYWGQGTQVTVSSLE [chain 1 S54V]
4 | ~17 % of WT | chain 1 MAEVQLVESGGGLVQPGGSLRLSCAASGYIYRRYRMGWYRQAPGKGREFVAAISGGSSTNYADSVKGRFTISRDNSKNTVYLQMNSLRAEDTAVYYCAAYDIVSDPRVYWGQGTQVTVSSLE [chain 1 R101D]
5 | ~99 % of WT | chain 1 MAEVQLVESGGGLVQPGGSLRLSCAASDYIYRRYRMGWYRQAPGKGREFVAAISGGSSINYADSVKGRFTISRDNSKNTVYLQMNSLRAEDTAVYYCAAYRIVSDPRVYWGQGTQVTVSSLE [chain 1 G28D, chain 1 T59I]
6 | ~12 % of WT | chain 1 MAEVQLVESGGGLVQPGGSLRLSCAASGYIYRRYRMGWYRQAPGKGREFVAAISGGSSTNYADSVKGRFTISRDNSKNTVYLQMNSLRAEDTAVYYCAADRIVSDPRVYWGQGTQVTVSSLE [chain 1 Y100D]
7 | ~54 % of WT | chain 1 MAEVQLVESGGGLVQPGGSLRLSCAASGYIYRRYRMGWYRQAPGKGREFVAAISGFSSTNYADSVKGRFTISRDNSKNTVYLQMNSLRAEDTAVYYCAAYRIVSDPRVYWGQGTQVTVSSLE [chain 1 G56F]
8 | ~3 % of WT | chain 1 MAEVQLVESGGGLVQPGGSLRLSCAASGYIYRRGRMGWYRQAPGKGREFVAAISGGSSTNYADSVKGRFTISRDNSKNTVYLQMNSLRAEDTAVYYCAAYRIVSDPRVYWGQGTQVTVSSLE [chain 1 Y34G]
9 | ~3 % of WT | chain 1 MAEVQLVESGGGLVQPGGSLRLSCAASGYIYRRYRMGWYRQAPGKGREFVAAISGGSSTNYADSVKGRFTISRDNSKNTVYLQMNSLRAEDTAVYYCAHYRIVSDPRVYWGQGTQVTVSSLE [chain 1 A99H]
10 | ~8 % of WT | chain 1 MAEVQLVESGGGLVQPGGSLRLSCAASGYIYRDYRMGWYRQAPGKGREFVAAISGGSSTNYADSVKGRFTISRDNSKNTVYLQMNSLRAEDTAVYYCAAYRIVSDPRVYWGQGTQVTVSSLE [chain 1 R33D]
